Experimental data as given in patent US20110086006.
Like-named read-outs stand apart in the source and are kept apart here.

T1: internally quenched fluorogenic peptide (FRET substrate), Ac-DED(EDANS)EEαAbuψ[COO]ASK(DABCYL)-NH2
T1 chain: DEDEEXASK

T2: KK4A peptide (KKGSVVIVGRIVLSGK), central region of the NS4A cofactor from genotype 1a with lysine residues added for improved solubility
T2 chain: KKGSVVIVGRIVLSGK


Assays:
[1] = tested on: KK4A peptide (KKGSVVIVGRIVLSGK), central region of the NS4A cofactor from genotype 1a with lysine residues added for improved solubility
[2] = tested on: internally quenched fluorogenic peptide (FRET substrate), Ac-DED(EDANS)EEαAbuψ[COO]ASK(DABCYL)-NH2
[3] = molecular target: T1, internally quenched fluorogenic peptide …
[4] = molecular target: T2, KK4A peptide (KKGSVVIVGRIVLSGK), …

| Molecule | kinetic parameters for the FRET substrate [1] | Kcat [2] | Kcat/Km [2] | Km [2] | Kcat [3] | Kcat/Km [3] | Km [3] | kinetic parameters for the FRET substrate [4] | kcat [3] | kcat/Km [3] |
| --- | --- | --- | --- | --- | --- | --- | --- | --- | --- | --- |
| wild type HCV NS3 serine protease domain, genotype 1a | Although the NS4A peptide co-factor was from HCV genotype 1a, no discernable difference in the kinetic parameters was observed | 1.2 s⁻¹ | 897000 M⁻¹ s⁻¹ | 1.3 µM |  |  |  |  |  |  |
| D168V mutant HCV NS3 serine protease domain, genotype 1b (protein) APITAYSQQTRGLLGCIITSLTGRDRNQVEGEVQVVSTATQSFLATCVNGVCWTVYHGAGSKTLAGPKGPITQMYTNVDQDLVGWQAPPGARSLTPCTCGSSDLYLVTRHADVIPVRRRGDSRGSLLSPRPVSYLKGSSGGPLLCPSGHAVGIFRAAVCTRGVAKAVVFVPVESMETTMRSHHHHHH |  |  |  |  | 0.6 s⁻¹ | 498000 M⁻¹ s⁻¹ | 1.2 µM |  |  |  |
| A156S mutant HCV NS3 serine protease domain, genotype 1b (protein) APITAYSQQTRGLLGCIITSLTGRDRNQVEGEVQVVSTATQSFLATCVNGVCWTVYHGAGSKTLAGPKGPITQMYTNVDQDLVGWQAPPGARSLTPCTCGSSDLYLVTRHADVIPVRRRGDSRGSLLSPRPVSYLKGSSGGPLLCPSGHAVGIFRSAVCTRGVAKAVDFVPVESMETTMRSHHHHHH |  |  |  |  | 0.6 s⁻¹ | 664000 M⁻¹ s⁻¹ | 0.9 µM |  |  |  |
| wild type HCV NS3 serine protease domain, genotype 1b (Con1), residues Ala1-Ser181 with a C-terminal hexa-histidine tag (protein) APITAYSQQTRGLLGCIITSLTGRDRNQVEGEVQVVSTATQSFLATCVNGVCWTVYHGAGSKTLAGPKGPITQMYTNVDQDLVGWQAPPGARSLTPCTCGSSDLYLVTRHADVIPVRRRGDSRGSLLSPRPVSYLKGSSGGPLLCPSGHAVGIFRAAVCTRGVAKAVDFVPVESMETTMRSHHHHHH |  |  |  |  | 1 s⁻¹ | 947000 M⁻¹ s⁻¹ | 1.1 µM | Although the NS4A peptide co-factor was from HCV genotype 1a, no discernable difference in the kinetic parameters was observed | 1 s⁻¹ | 947000 M⁻¹ s⁻¹ |
| A156V mutant HCV NS3 serine protease domain, Con1 strain (protein) APITAYSQQTRGLLGCIITSLTGRDRNQVEGEVQVVSTATQSFLATCVNGVCWTVYHGAGSKTLAGPKGPITQMYTNVDQDLVGWQAPPGARSLTPCTCGSSDLYLVTRHADVIPVRRRGDSRGSLLSPRPVSYLKGSSGGPLLCPSGHAVGIFRVAVCTRGVAKAVDFVPVESMETTMRSHHHHHH |  |  |  |  |  |  | 2.6 µM |  | 0.6 s⁻¹ | 234000 M⁻¹ s⁻¹ |
| A156T mutant HCV NS3 serine protease domain, Con1 strain (protein) APITAYSQQTRGLLGCIITSLTGRDRNQVEGEVQVVSTATQSFLATCVNGVCWTVYHGAGSKTLAGPKGPITQMYTNVDQDLVGWQAPPGARSLTPCTCGSSDLYLVTRHADVIPVRRRGDSRGSLLSPRPVSYLKGSSGGPLLCPSGHAVGIFRTAVCTRGVAKAVDFVPVESMETTMRSHHHHHH |  |  |  |  |  |  | 1.3 µM |  | 0.2 s⁻¹ | 136000 M⁻¹ s⁻¹ |
| D168A mutant HCV NS3 serine protease domain, genotype 1b (protein) APITAYSQQTRGLLGCIITSLTGRDRNQVEGEVQVVSTATQSFLATCVNGVCWTVYHGAGSKTLAGPKGPITQMYTNVDQDLVGWQAPPGARSLTPCTCGSSDLYLVTRHADVIPVRRRGDSRGSLLSPRPVSYLKGSSGGPLLCPSGHAVGIFRAAVCTRGVAKAVAFVPVESMETTMRSHHHHHH |  |  |  |  | 0.3 s⁻¹ | 150000 M⁻¹ s⁻¹ | 2 µM |  |  |  |
